Test [1] concerns the target A1T1-His6 (module 1 multi-domain construct of the nocardicin NRPS) (Nocardia uniformis subsp. tsuyamanensis ATCC 21806). The test is described as follows: pull-down.
The target in test [2] is A4T4-His6 (module 4 multi-domain construct of NocB) (Nocardia uniformis subsp. tsuyamanensis ATCC 21806). Briefly: pull-down.

Regarding “MbtH family protein NocI (untagged) (natural protein)”, the stoichiometry N in test [1] and in test [2] was 1 in each case.
